Measurements published in article PMC12140367, “Discovery, Herbicidal Activity and Biosynthesis of a Novel Natural Tetramic Acid from Alternaria Species” (Advanced Science, 2025).

What was measured:
Type in all cases: biochemical, Alternaria alternata
[1] = test system: CCC(O)(CC(=O)O)C(=O)O; test: UPLC-MS quantification of 3EMA formed; details: 250 mM potassium phosphate pH 7.0, 30 °C
[2] = test system: CCC(=O)C(=O)O; test: UPLC-MS quantification of 2EMA formed; details: 1 mM acetyl-CoA, 10 mM MgCl2, potassium phosphate pH 7.5, 30 °C
[3] = test system: CCC(C(=O)O)C(O)C(=O)O; test: UPLC-MS quantification of OVA formed; details: 1 mM NAD+, 5 mM MnCl2, 1 mM DTT, MOPS-KCl pH 7.5, 30 °C

IPMDH (Alternaria alternata)
Km [1]: 786.26 µM

IPMS (Alternaria alternata)
Km [2]: 164.36 µM

ISMD (Alternaria alternata)
Km [3]: 87.20 µM
